Measurements: doi:10.1101/2021.04.08.438944

Columns and labels:
[1] = target: DNAJB14-ΔDUF tagged with FLAG (human); experiment: co-IP
[2] = target: DNAJB14-ΔDUF tagged with FLAG (human); experiment: co-IP; remark: listed apart in the source

Sequence of DNAJB14-ΔDUF tagged with FLAG (human) (Q8TBM8 whole entry, stated change not applied): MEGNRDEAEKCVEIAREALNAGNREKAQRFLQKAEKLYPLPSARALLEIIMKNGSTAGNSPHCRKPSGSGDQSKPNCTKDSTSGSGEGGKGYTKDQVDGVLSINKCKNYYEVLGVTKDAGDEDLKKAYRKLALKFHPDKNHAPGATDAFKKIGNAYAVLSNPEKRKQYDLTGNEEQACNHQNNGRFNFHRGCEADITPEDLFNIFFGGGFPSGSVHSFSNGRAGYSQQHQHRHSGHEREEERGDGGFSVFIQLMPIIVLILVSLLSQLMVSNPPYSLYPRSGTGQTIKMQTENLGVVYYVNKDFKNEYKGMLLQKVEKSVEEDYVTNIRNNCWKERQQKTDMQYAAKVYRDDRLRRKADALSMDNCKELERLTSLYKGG

## HSP70 (from UniProt P0DMV8 1-641) (natural protein)
[1]
  interaction left relative to DNAJB14-FL (co-IP densitometry): 50%

B1: DNAJB12-FL tagged with mOrange (natural protein)
chain: MESNKDEAERCISIALKAIQSNQPDRALRFLEKAQRLYPTPRVRALIESLNQKPQTAGDQPPPTDTTHATHRKAGGTDAPSANGEAGGESTKGYTAEQVAAVKRVKQCKDYYEILGVSRGASDEDLKKAYRRLALKFHPDKNHAPGATEAFKAIGTAYAVLSNPEKRKQYDQFGDDKSQAARHGHGHGDFHRGFEADISPEDLFNMFFGGGFPSSNVHVYSNGRMRYTYQQRQDRRDNQGDGGLGVFVQLMPILILILVSALSQLMVSSPPYSLSPRPSVGHIHRRVTDHLGVVYYVGDTFSEEYTGSSLKTVERNVEDDYIANLRNNCWKEKQQKEGLLYRARYFGDTDMYHRAQKMGTPSCSRLSEVQASLHG
[2]
  fold lower than DNAJB14-FL (co-IP densitometry): 3 fold lower
